Experimental findings from US20240150490A1 (MABPRO A S, published 2024) are described below.

In one assay the target is recombinant human CA IX (human, UniProt Q16790 38-414). The assay can be described thus: SPR (Biacore T200), antibody captured on CM5 chip, rh CA IX in flow, 25 C. As for the experimental part:
In order to determinate the antigen-binding affinity of humanized variants, measurements of affinity constant (KD) for antibodies binding to CA IX were performed by SPR using a Biacore 2000 (T200 in case of CA9hu-2) instrument (GE Healthcare, Piscataway, NJ USA). Each humanized antibody variant was captured on the CM5 sensor chip and recombinant human CA IX (rh CA IX; 42 kDa; R&D Systems, Inc., Minneapolis MN, USA) protein as an antigen was added to the buffer flowing over the chip. The setting details of quantitative interaction analysis between humanized antibodies and rh CA IX were as follows: flow rate 30 μl/min; analysis temperature 25° C.; analysis buffer (10mM HEPES pH 7.4, 150 mM NaCl, […], 0.05% Tween 20). Results from SPR analysis are expressed as the equilibrium dissociation constant (KD) (Table 7).
A general note: In SPR one partner is held on a chip, and binding of the other changes the refractive index at the surface.

The target of assay [1] is CA IX expressed by cells (C-33a_CA IX transfectants; hypoxic BT-20, JIMT-1, 8-MG-BA and 42-MG-BA cells) (human, UniProt Q16790 38-459). The assay is described as follows: cell-based or functional assay.

B1: CA9hu-2 chimeric HC0LC0 (antibody, V domains shown)
VH: EVQLVETGGGLVQPKGSLKLSCAASGFTFNTNAMHWVRQAPGKGLEWVARIRSKSNNYTTYYADSVKDRFTISRDDSQSMLYLQMNNLKTEDTAMYYCVCGSWFAYWGQGTLVTVSA
VL: DIVMTQSPSSLAMSLGQKVTMSCKSSQSLLNSSNQKNYLAWFQQKPGQSPKLLVYFTSTRQSGVPDRFIGSGSGTDFTLTISSVQAEDLADYFCQQHYSIPLTFGAGTKLELK
notes: also called HC0LC0 (CA9hu-2)
B1: in the assay with recombinant human CA IX, the Kd (commonly the free concentration of one partner at which half of the binding sites on the other are occupied at equilibrium, for simple one-to-one binding) was 13.1 nM.

B2: CA9hu-2_HC1LC5 (antibody, V domains shown)
VH: EVQLVESGGGLVQPGGSLKLSCAASGFTFNTNAMHWVRQASGKGLEWVGRIRSKSNNYTTYYADSVKDRFTISRDDSKNTAYLQMNSLKTEDTAVYYCVCGSWFAYWGQGTLVTVSS
VL: DIVMTQSPDSLAVSLGERATINCKSSQSLLNSSNQKNYLAWYQQKPGQPPKLLIYFTSTRQSGVPDRFSGSGSGTDFTLTISSLQAEDVAVYYCQQHYSIPLTFGQGTKLEIK
notes: Humanized from murine IV/18; also called HC1LC5 (CA9hu-2)
For the molecule B2, the “ADCC reporter luminescence, C-33a_CA IX against C-33a_neo cells” value (shortened to “ADCC reporter luminescence, C-33a_CA IX”) in assay [1] turned out to be 2 times. Moreover, the Kd with recombinant human CA IX came out at 71.3 nM.

B3: CA9hu-2_HC1LC3 (antibody, V domains shown)
VH: EVQLVESGGGLVQPGGSLKLSCAASGFTFNTNAMHWVRQASGKGLEWVGRIRSKSNNYTTYYADSVKDRFTISRDDSKNTAYLQMNSLKTEDTAVYYCVCGSWFAYWGQGTLVTVSS
VL: DIQMTQSPDSLAVSLGERATINCKSSQSLLNSSNQKNYLAWYQQKPGQPPKLLIYFTSTRQSGVPDRFSGSGSGTDFTLTISSLQAEDVAVYFCQQHYSIPLTFGQGTKVEIK
notes: Humanized from murine IV/18; also called HC1LC3 (CA9hu-2)
Take B3: the “ADCC reporter luminescence, C-33a_CA IX” value in assay [1] turned out to be 2 times. For the same molecule, the Kd with recombinant human CA IX is 70.5 nM.

B4: CA9hu-2_HC2LC5 (antibody, V domains shown)
VH: EVQLVESGGGLVQPGGSLKLSCAASGFTFNTNAMHWVRQASGKGLEWVGRIRSKSNNYTTYYADSVKDRFTISRDDSKSTAYLQMNSLKTEDTAVYYCVCGSWFAYWGQGTLVTVSS
VL: DIVMTQSPDSLAVSLGERATINCKSSQSLLNSSNQKNYLAWYQQKPGQPPKLLIYFTSTRQSGVPDRFSGSGSGTDFTLTISSLQAEDVAVYYCQQHYSIPLTFGQGTKLEIK
notes: Humanized from murine IV/18; also called HC2LC5 (CA9hu-2)
Take B4: the “ADCC reporter luminescence, C-33a_CA IX” value in assay [1] was 2 times. For the same molecule, in the assay with recombinant human CA IX, the Kd was 60.5 nM.

B5: CA9hu-2_HC1LC4 (antibody, V domains shown)
VH: EVQLVESGGGLVQPGGSLKLSCAASGFTFNTNAMHWVRQASGKGLEWVGRIRSKSNNYTTYYADSVKDRFTISRDDSKNTAYLQMNSLKTEDTAVYYCVCGSWFAYWGQGTLVTVSS
VL: DIVMTQSPDSLAVSLGERATINCKSSQSLLNSSNQKNYLAWFQQKPGQPPKVLIYFTSTRQSGVPDRFTGSGSGTDFTLTISSLQAEDVAVYYCQQHYSIPLTFGQGTKLEIK
notes: Humanized from murine IV/18; also called HC1LC4 (CA9hu-2)
As to B5, the “ADCC reporter luminescence, C-33a_CA IX” value in assay [1] came to 2 times. Moreover, the Kd with recombinant human CA IX was determined as 74.9 nM.

B6: CA9hu-2_HC2LC1 (antibody, V domains shown)
VH: EVQLVESGGGLVQPGGSLKLSCAASGFTFNTNAMHWVRQASGKGLEWVGRIRSKSNNYTTYYADSVKDRFTISRDDSKSTAYLQMNSLKTEDTAVYYCVCGSWFAYWGQGTLVTVSS
VL: DVVMTQSPDSLAVSLGERVTINCKSSQSLLNSSNQKNYLAWYQQKPGQSPKLLIYFTSTRQSGVPDRFSGSGSGTDFTLTISSLQAEDVAVYYCQQHYSIPLTFGQGTKLEIK
notes: Humanized from murine IV/18; also called HC2LC1 (CA9hu-2)
With B6, the “ADCC reporter luminescence, C-33a_CA IX” value in assay [1] is 2 times. The Kd with recombinant human CA IX turned out to be 53.9 nM.

B7: CA9hu-2_HC2LC3 (antibody, V domains shown)
VH: EVQLVESGGGLVQPGGSLKLSCAASGFTFNTNAMHWVRQASGKGLEWVGRIRSKSNNYTTYYADSVKDRFTISRDDSKSTAYLQMNSLKTEDTAVYYCVCGSWFAYWGQGTLVTVSS
VL: DIQMTQSPDSLAVSLGERATINCKSSQSLLNSSNQKNYLAWYQQKPGQPPKLLIYFTSTRQSGVPDRFSGSGSGTDFTLTISSLQAEDVAVYFCQQHYSIPLTFGQGTKVEIK
notes: Humanized from murine IV/18; also called HC2LC3 (CA9hu-2)
Turning to B7, the “ADCC reporter luminescence, C-33a_CA IX” value in assay [1] was 2 times. Further, the Kd with recombinant human CA IX amounted to 98.3 nM.

B8: CA9hu-2_HC2LC2 (antibody, V domains shown)
VH: EVQLVESGGGLVQPGGSLKLSCAASGFTFNTNAMHWVRQASGKGLEWVGRIRSKSNNYTTYYADSVKDRFTISRDDSKSTAYLQMNSLKTEDTAVYYCVCGSWFAYWGQGTLVTVSS
VL: DIVMTQSPDSLAVSLGERATINCKSSQSLLNSSNQKNYLAWFQQKPGQPPNLVIYFTSTRQSGVPDRFSGSGSGTDFTLTINSLQAEDVAVYFCQQHYSIPLTFGQGTQVEIK
notes: Humanized from murine IV/18; also called HC2LC2 (CA9hu-2)
Consider B8, for which the “ADCC reporter luminescence, C-33a_CA IX” value in assay [1] was 2 times. Besides, in the assay with recombinant human CA IX, the Kd was 87.7 nM.

B9: CA9hu-2_HC4LC1 (antibody, V domains shown)
VH: EVQLVESGGGVVQPGRSLRLSCAASGFTFNTNAMHWVRQAPGKGLEWVARIRSKSNNYTTYYADSVKDRFTISRDNSKNTLYLQMNSLRAEDTAVYYCVCGSWFAYWGQGTLVTVSS
VL: DVVMTQSPDSLAVSLGERVTINCKSSQSLLNSSNQKNYLAWYQQKPGQSPKLLIYFTSTRQSGVPDRFSGSGSGTDFTLTISSLQAEDVAVYYCQQHYSIPLTFGQGTKLEIK
notes: Humanized from murine IV/18; also called HC4LC1 (CA9hu-2)
In the case of B9, the “ADCC reporter luminescence, C-33a_CA IX” value in assay [1] was determined as 2 times. Besides, the Kd in the assay with recombinant human CA IX amounted to 39.6 nM.

B10: CA9hu-2_HC2LC4 (antibody, V domains shown)
VH: EVQLVESGGGLVQPGGSLKLSCAASGFTFNTNAMHWVRQASGKGLEWVGRIRSKSNNYTTYYADSVKDRFTISRDDSKSTAYLQMNSLKTEDTAVYYCVCGSWFAYWGQGTLVTVSS
VL: DIVMTQSPDSLAVSLGERATINCKSSQSLLNSSNQKNYLAWFQQKPGQPPKVLIYFTSTRQSGVPDRFTGSGSGTDFTLTISSLQAEDVAVYYCQQHYSIPLTFGQGTKLEIK
notes: Humanized from murine IV/18; also called HC2LC4 (CA9hu-2)
On to B10, for which the “ADCC reporter luminescence, C-33a_CA IX” value in assay [1] is 2 times. Further, in the assay with recombinant human CA IX, the Kd stood at 60.1 nM.

B11: CA9hu-2_HC4LC3 (antibody, V domains shown)
VH: EVQLVESGGGVVQPGRSLRLSCAASGFTFNTNAMHWVRQAPGKGLEWVARIRSKSNNYTTYYADSVKDRFTISRDNSKNTLYLQMNSLRAEDTAVYYCVCGSWFAYWGQGTLVTVSS
VL: DIQMTQSPDSLAVSLGERATINCKSSQSLLNSSNQKNYLAWYQQKPGQPPKLLIYFTSTRQSGVPDRFSGSGSGTDFTLTISSLQAEDVAVYFCQQHYSIPLTFGQGTKVEIK
notes: Humanized from murine IV/18; also called HC4LC3 (CA9hu-2)
B11: the “ADCC reporter luminescence, C-33a_CA IX” value in assay [1] was found to be 2 times. Also, the Kd in the assay with recombinant human CA IX was 44.2 nM.

B12: CA9hu-2_HC1LC1 (antibody, V domains shown)
VH: EVQLVESGGGLVQPGGSLKLSCAASGFTFNTNAMHWVRQASGKGLEWVGRIRSKSNNYTTYYADSVKDRFTISRDDSKNTAYLQMNSLKTEDTAVYYCVCGSWFAYWGQGTLVTVSS
VL: DVVMTQSPDSLAVSLGERVTINCKSSQSLLNSSNQKNYLAWYQQKPGQSPKLLIYFTSTRQSGVPDRFSGSGSGTDFTLTISSLQAEDVAVYYCQQHYSIPLTFGQGTKLEIK
notes: Humanized from murine IV/18; also called HC1LC1 (CA9hu-2)
With B12, the “ADCC reporter luminescence, C-33a_CA IX” value in assay [1] was 2 times. Moreover, the Kd in the assay with recombinant human CA IX turned out to be 44 nM.

B13: CA9hu-2_HC3LC5 (antibody, V domains shown)
VH: QVQLVESGGGVVQPGGSLRLSCAASGFTFNTNAMHWVRQAPGRGLEWVARIRSKSNNYTTYYADSVKDRFTISRDNSKNTLYLQVNSLRAEDTAVYYCVCGSWFAYWGQGTLVTVSS
VL: DIVMTQSPDSLAVSLGERATINCKSSQSLLNSSNQKNYLAWYQQKPGQPPKLLIYFTSTRQSGVPDRFSGSGSGTDFTLTISSLQAEDVAVYYCQQHYSIPLTFGQGTKLEIK
notes: Humanized from murine IV/18; also called HC3LC5 (CA9hu-2)
Take B13: the “ADCC reporter luminescence, C-33a_CA IX” value in assay [1] is 2 times. Also, in the assay with recombinant human CA IX, the Kd was 54.3 nM.

B14: CA9hu-2_HC1LC2 (antibody, V domains shown)
VH: EVQLVESGGGLVQPGGSLKLSCAASGFTFNTNAMHWVRQASGKGLEWVGRIRSKSNNYTTYYADSVKDRFTISRDDSKNTAYLQMNSLKTEDTAVYYCVCGSWFAYWGQGTLVTVSS
VL: DIVMTQSPDSLAVSLGERATINCKSSQSLLNSSNQKNYLAWFQQKPGQPPNLVIYFTSTRQSGVPDRFSGSGSGTDFTLTINSLQAEDVAVYFCQQHYSIPLTFGQGTQVEIK
notes: Humanized from murine IV/18; also called HC1LC2 (CA9hu-2)
Take B14: the “ADCC reporter luminescence, C-33a_CA IX” value in assay [1] came to 2 times. Also, the Kd in the assay with recombinant human CA IX was 56.1 nM.
